# In patent US11541126B1, “Anti-ASGR1 antibody TLR8 agonist comprising conjugates and uses thereof” (Silverback Therapeutics, Inc., priority 2020, dated 2023):
# T1: HepG2 cells (which express ASGR1) (Homo sapiens, UniProt P07306)
# T1 construct: endogenous in cells; host or cells: HepG2
# T1 sequence (P07306 1-291): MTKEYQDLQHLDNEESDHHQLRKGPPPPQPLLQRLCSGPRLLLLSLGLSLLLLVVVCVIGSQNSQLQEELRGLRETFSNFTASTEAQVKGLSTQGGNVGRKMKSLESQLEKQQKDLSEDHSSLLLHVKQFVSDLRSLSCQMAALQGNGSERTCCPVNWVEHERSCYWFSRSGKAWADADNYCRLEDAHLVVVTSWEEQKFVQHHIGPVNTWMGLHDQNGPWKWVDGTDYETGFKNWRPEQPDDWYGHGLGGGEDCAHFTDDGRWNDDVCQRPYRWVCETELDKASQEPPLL
# Target: T1, HepG2 cells (which express ASGR1)
# Assay: Guava HepG2 cell binding screen of humanized anti-ASGR1 clones
# Set-up: unit not given here
# Details: humanized G2D clones (Table 5); two numbers per cell, not explained
# Experimental: Hybridomas producing monoclonal antibodies (mAbs) specific for human ASGR1 were prepared from Balb/C mice immunized with ASGR1-AviHis at a service provider using their propriety protocol. Antibody heavy and light chain sequences were obtained, amplified, and cloned. Clone supernatants containing the expressed mAbs were screened for binding to a human ASGR1-IgG1Fc fusion protein, and those with a positive signal as measured by enzyme linked immunosorbent assay (ELISA) were screened for cell binding on HepG2 cells (which express ASGR1).
row,Guava HepG2 Screen,Molecule
1,145/92,"hzG2D-28: humanized G2D clone; ""G2D VL region ... of clones 1-16, 19-21, 26-29, 31, and 33 ... grafted into the human germline sequence VKI-L1 with JK4"" (antibody, V domains shown, Synthetic sequence hzG2.47D VH R66K, V67A, T68S, I69L, R71V, A93T, R94S; Synthetic sequence hzG2.5D VLa F71Y, T72S) VH: QVQLVQSGAEVKKPGASVKVSCKASGYTFTGYYMHWVRQAPGQRLEWMGRINPNNGATNYNQNFKDKASLTVDTSASTAYMELSSLRSEDTAVYYCTSVNFYYWGQGTTVTVSS VL: DIQMTQSPSSLSASVGDRVTITCKASQVINSYLSWFQQKPGKAPKSLIYRANTLVDGVPSRFSGSGSGTDYSLTISSLQPEDFATYYCLQYAEFPYTFGGGTKVEIK"
2,191/116,"hzG2D-27: humanized G2D clone; ""G2D VL region ... of clones 1-16, 19-21, 26-29, 31, and 33 ... grafted into the human germline sequence VKI-L1 with JK4"" (antibody, V domains shown, Synthetic sequence hzG2.47D VH R66K, V67A, T68S, I69L, R71V, A93T, R94S; Synthetic sequence hzG2.4D VLa Q79E, P80Y) VH: QVQLVQSGAEVKKPGASVKVSCKASGYTFTGYYMHWVRQAPGQRLEWMGRINPNNGATNYNQNFKDKASLTVDTSASTAYMELSSLRSEDTAVYYCTSVNFYYWGQGTTVTVSS VL: DIQMTQSPSSLSASVGDRVTITCKASQVINSYLSWFQQKPGKAPKSLIYRANTLVDGVPSRFSGSGSGTDFTLTISSLEYEDFATYYCLQYAEFPYTFGGGTKVEIK"
3,189/108,"hzG2D-29: humanized G2D clone; ""G2D VL region ... of clones 1-16, 19-21, 26-29, 31, and 33 ... grafted into the human germline sequence VKI-L1 with JK4"" (antibody, V domains shown, Synthetic sequence hzG2.49D VH R38K, R66K, V67A, T68S, I69L, R71V, A93T, R94S; Synthetic sequence hzG2D VLa) VH: QVQLVQSGAEVKKPGASVKVSCKASGYTFTGYYMHWVKQAPGQRLEWMGRINPNNGATNYNQNFKDKASLTVDTSASTAYMELSSLRSEDTAVYYCTSVNFYYWGQGTTVTVSS VL: DIQMTQSPSSLSASVGDRVTITCKASQVINSYLSWFQQKPGKAPKSLIYRANTLVDGVPSRFSGSGSGTDFTLTISSLQPEDFATYYCLQYAEFPYTFGGGTKVEIK"
4,198/115,"hzG2D-30: humanized G2D clone; ""G2D VL region ... of clones 22, 23, 30, 32, and 34-37 ... grafted into the human germline sequence VKI-O2 with JK4"" (antibody, V domains shown, Synthetic sequence hzG2.49D VH R38K, R66K, V67A, T68S, I69L, R71V, A93T, R94S; Synthetic sequence hzG2D VLb) VH: QVQLVQSGAEVKKPGASVKVSCKASGYTFTGYYMHWVKQAPGQRLEWMGRINPNNGATNYNQNFKDKASLTVDTSASTAYMELSSLRSEDTAVYYCTSVNFYYWGQGTTVTVSS VL: DIQMTQSPSSLSASVGDRVTITCKASQVINSYLSWYQQKPGKAPKLLIYRANTLVDGVPSRFSGSGSGTDFTLTISSLQPEDFATYYCLQYAEFPYTFGGGTKVEIK"

# The remaining lines, values behind:
row,Molecule,Guava HepG2 Screen
1,"G2D-C (antibody, V domains shown, IgG1 kappa constant regions; Synthetic sequence G2D VH; Synthetic sequence G2D VL) VH: EVQLQQSGPELVKPGASVKISCKASGYSFTGYYMHWVKQSHVKSLEWIGRINPNNGATNYNQNFKDKASLTVDKSSSTAYMEFHSLTSEDSAVYYCTSVNFYYWGQGTTLTVSS VL: DIKMTQSPSSMYASLGERVTITCKASQVINSYLSWFQQKPGKSPETLIYRANTLVDGVPSRFSGSGSGQDYSLTISSLEYEDLGIYYCLQYAEFPYTFGGGTKLEIK",187/145
2,"hzG2D-21: humanized G2D clone; ""G2D VL region ... of clones 1-16, 19-21, 26-29, 31, and 33 ... grafted into the human germline sequence VKI-L1 with JK4"" (antibody, V domains shown, Synthetic sequence hzG2.47D VH R66K, V67A, T68S, I69L, R71V, A93T, R94S; Synthetic sequence hzG2D VLa) VH: QVQLVQSGAEVKKPGASVKVSCKASGYTFTGYYMHWVRQAPGQRLEWMGRINPNNGATNYNQNFKDKASLTVDTSASTAYMELSSLRSEDTAVYYCTSVNFYYWGQGTTVTVSS VL: DIQMTQSPSSLSASVGDRVTITCKASQVINSYLSWFQQKPGKAPKSLIYRANTLVDGVPSRFSGSGSGTDFTLTISSLQPEDFATYYCLQYAEFPYTFGGGTKVEIK",199/127
3,"hzG2D-26: humanized G2D clone; ""G2D VL region ... of clones 1-16, 19-21, 26-29, 31, and 33 ... grafted into the human germline sequence VKI-L1 with JK4"" (antibody, V domains shown, Synthetic sequence hzG2.47D VH R66K, V67A, T68S, I69L, R71V, A93T, R94S; Synthetic sequence hzG2.3D VLa K45E, S46T) VH: QVQLVQSGAEVKKPGASVKVSCKASGYTFTGYYMHWVRQAPGQRLEWMGRINPNNGATNYNQNFKDKASLTVDTSASTAYMELSSLRSEDTAVYYCTSVNFYYWGQGTTVTVSS VL: DIQMTQSPSSLSASVGDRVTITCKASQVINSYLSWFQQKPGKAPETLIYRANTLVDGVPSRFSGSGSGTDFTLTISSLQPEDFATYYCLQYAEFPYTFGGGTKVEIK",185/114
4,"hzG2D-24: humanized G2D clone; ""G2D VL region ... of clones 24 and 25 ... grafted into the human germline sequence VKI-A20 with JK4 to generate hzG2D VLc (SEQ ID NO:249)"" (antibody, V domains shown, Synthetic sequence hzG2.46D VH R66K, V67A, T68S, I69L, R71V; Synthetic sequence hzG2D VLc) VH: QVQLVQSGAEVKKPGASVKVSCKASGYTFTGYYMHWVRQAPGQRLEWMGRINPNNGATNYNQNFKDKASLTVDTSASTAYMELSSLRSEDTAVYYCARVNFYYWGQGTTVTVSS VL: DIQMTQSPSSLSASVGDRVTITCKASQVINSYLSWYQQKPGKVPKLLIYRANTLVDGVPSRFSGSGSGTDFTLTISSLQPEDVATYYCLQYAEFPYTFGGGTKVEIK",None
5,"hzG2D-23: humanized G2D clone; ""G2D VL region ... of clones 22, 23, 30, 32, and 34-37 ... grafted into the human germline sequence VKI-O2 with JK4"" (antibody, V domains shown, Synthetic sequence hzG2.47D VH R66K, V67A, T68S, I69L, R71V, A93T, R94S; Synthetic sequence hzG2D VLb) VH: QVQLVQSGAEVKKPGASVKVSCKASGYTFTGYYMHWVRQAPGQRLEWMGRINPNNGATNYNQNFKDKASLTVDTSASTAYMELSSLRSEDTAVYYCTSVNFYYWGQGTTVTVSS VL: DIQMTQSPSSLSASVGDRVTITCKASQVINSYLSWYQQKPGKAPKLLIYRANTLVDGVPSRFSGSGSGTDFTLTISSLQPEDFATYYCLQYAEFPYTFGGGTKVEIK",198/131
6,"hzG2D-25: humanized G2D clone; ""G2D VL region ... of clones 24 and 25 ... grafted into the human germline sequence VKI-A20 with JK4 to generate hzG2D VLc (SEQ ID NO:249)"" (antibody, V domains shown, Synthetic sequence hzG2.47D VH R66K, V67A, T68S, I69L, R71V, A93T, R94S; Synthetic sequence hzG2D VLc) VH: QVQLVQSGAEVKKPGASVKVSCKASGYTFTGYYMHWVRQAPGQRLEWMGRINPNNGATNYNQNFKDKASLTVDTSASTAYMELSSLRSEDTAVYYCTSVNFYYWGQGTTVTVSS VL: DIQMTQSPSSLSASVGDRVTITCKASQVINSYLSWYQQKPGKVPKLLIYRANTLVDGVPSRFSGSGSGTDFTLTISSLQPEDVATYYCLQYAEFPYTFGGGTKVEIK",None
7,"hzG2D-22: humanized G2D clone; ""G2D VL region ... of clones 22, 23, 30, 32, and 34-37 ... grafted into the human germline sequence VKI-O2 with JK4"" (antibody, V domains shown, Synthetic sequence hzG2.46D VH R66K, V67A, T68S, I69L, R71V; Synthetic sequence hzG2D VLb) VH: QVQLVQSGAEVKKPGASVKVSCKASGYTFTGYYMHWVRQAPGQRLEWMGRINPNNGATNYNQNFKDKASLTVDTSASTAYMELSSLRSEDTAVYYCARVNFYYWGQGTTVTVSS VL: DIQMTQSPSSLSASVGDRVTITCKASQVINSYLSWYQQKPGKAPKLLIYRANTLVDGVPSRFSGSGSGTDFTLTISSLQPEDFATYYCLQYAEFPYTFGGGTKVEIK",None
